Results published in US11161912B2, “Heparanase-neutralizing monoclonal antibodies” (Technion Research & Development Foundation Limited, priority 2015, dated 2021).
“Also recorded” adds a separate entry of the source.

Experiments:
[1] = biological target: T1, heparanase (latent 65 kDa or GS3 constitutively active) (Homo sapiens, UniProt Q9Y251); assay: Cellular uptake and processing of heparanase in HEK 293 cells (immunoblot); type: cell-based; settings: mAb 10 μg/ml
T1 construct: host or cells: added exogenously to HEK 293 cells
T1 sequence (Q9Y251 36-543): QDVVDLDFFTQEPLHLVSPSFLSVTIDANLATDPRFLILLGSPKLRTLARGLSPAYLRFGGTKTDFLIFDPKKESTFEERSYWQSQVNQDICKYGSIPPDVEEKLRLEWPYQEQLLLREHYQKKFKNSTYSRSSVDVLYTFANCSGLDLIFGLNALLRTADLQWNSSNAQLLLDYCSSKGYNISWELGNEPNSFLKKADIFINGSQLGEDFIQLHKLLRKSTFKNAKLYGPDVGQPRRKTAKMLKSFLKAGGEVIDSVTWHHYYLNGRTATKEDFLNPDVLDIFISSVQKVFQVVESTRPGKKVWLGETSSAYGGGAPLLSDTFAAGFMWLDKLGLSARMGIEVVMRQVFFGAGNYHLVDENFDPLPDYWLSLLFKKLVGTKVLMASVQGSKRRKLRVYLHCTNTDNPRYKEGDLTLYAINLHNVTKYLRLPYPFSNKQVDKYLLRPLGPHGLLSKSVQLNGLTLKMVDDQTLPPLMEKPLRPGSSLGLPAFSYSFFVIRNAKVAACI
Excerpt: (§1) Development of heparanase-neutralizing monoclonal antibodies: In order to target heparanase activity even more specifically, a panel of monoclonal antibodies (mAb) directed against the KKDC peptide (Lys158-Asn171) which comprises the substrate (HS)-binding domain of heparanase (Levy-Adam F, et al. 2005, J Biol Chem 280(21):20457-20466) were developed. In order to validate that the resulting antibodies target the heparin/HS binding domain, cellular uptake of latent 65 kDa heparanase in the absence or presence of the various newly generated mAbs was tested. This system appeared most relevant because previous studies have shown that heparanase uptake is HS-dependent (Gingis-Velitski S, et al. 2004. J Biol Chem 279(42):44084-44092). […] Moreover, liver metastasis of ESb cells was inhibited 4-5 fold by mAb 9E8 (FIG. 3C). The availability of highly specific heparanase-neutralizing mAbs led to the conclusion that heparanase enzymatic activity is required for cell invasion and tumor metastasis.
(§2) FIG. 3A. HEK 293 cells were incubated with latent 65 kDa (upper panel) or GS3 constitutively active heparanase (1 μg/ml; third panel) and the indicated mAbs (10 μg/ml). […] The mixture was then applied onto ^35S-labeled ECM-coated dishes and heparanase activity was determined as described above (lower panel). […] Quantification of the extent of CD45 staining is shown graphically in the lower panel. […]

[2] = system: heparanase (latent 65 kDa or GS3 constitutively active); assay: as above; type: cell-based; settings: GS3 1 μg/ml, mAb 10 μg/ml
Excerpt: as §1, §2

B1: mAb 9E8: monoclonal IgM raised against KKDC peptide (Lys158-Asn171) of heparanase; VH SEQ ID NO: 7, VL SEQ ID NO: 8 (antibody)
VH: EVKLLESGGGLVQPGGSLKLSCAASGFDFSRYWMSWVRQAPGKGLEWIGEINPDSSTINYTPSLKDKFIISRDNAKNTLYLQMSKVRSEDTALYYCARRGYEGNYAMDYWGQGTSVTVSSESQSFPNVFPLVSCESPLSDKNLVAMGCLAR
VL: DIVMTQAAPSVPVTPGESVSISCRSSKSLLHSNGNTYLYWFLQRPGQSPQLLIYRMSNLASGVPDRFSGSGSGTAFTLRISRVEAEDVGVYYCMQHLEYPFTFGSGTKLEIKRADAAPTVSIFPPSSEQLTSGGASVVCFL
modifications: IgM constant regions
In the case of B1, the “uptake and processing of latent 65 kDa heparanase” value [1] is reported as “markedly decreased; also recorded: almost complete inhibition” and the “uptake of constitutively active heparanase (GS3)” value [2] is reported as “inhibited profoundly”.
